In US20030077290A1:

Molecular target: serum IgE from grass pollen allergic patients (171 sera)
Assay: ELISA competition; sera preabsorbed with rPhl p 6, IgE binding to rPhl p 5

percent of Phl p 5-specific IgE preabsorbed: < 20%
B1: recombinant Phl p 6 (protein)
chain: GKATTEEQKLIEDINASFRAAMATTANVPPADKYKTFEAAFTVSSKRNLADAVSKAPQLVPKLDEVYNAAYNAADHAAPEDKYEAFVLHFSEALHIIAGTPEVHAVKPGA
